The values below come from PMC2615606.

Data set [1] deals with T1, Sp1 (rhSp1) (UniProt P08047 1-785). The data set is described as follows: EMSA. On the technique in general: Mobility shift assays separate free from complexed probe on a gel.
For data set [2], the target named is T1, Sp1 (rhSp1). The data set is described as follows: competition.

T1 sequence (P08047 whole entry): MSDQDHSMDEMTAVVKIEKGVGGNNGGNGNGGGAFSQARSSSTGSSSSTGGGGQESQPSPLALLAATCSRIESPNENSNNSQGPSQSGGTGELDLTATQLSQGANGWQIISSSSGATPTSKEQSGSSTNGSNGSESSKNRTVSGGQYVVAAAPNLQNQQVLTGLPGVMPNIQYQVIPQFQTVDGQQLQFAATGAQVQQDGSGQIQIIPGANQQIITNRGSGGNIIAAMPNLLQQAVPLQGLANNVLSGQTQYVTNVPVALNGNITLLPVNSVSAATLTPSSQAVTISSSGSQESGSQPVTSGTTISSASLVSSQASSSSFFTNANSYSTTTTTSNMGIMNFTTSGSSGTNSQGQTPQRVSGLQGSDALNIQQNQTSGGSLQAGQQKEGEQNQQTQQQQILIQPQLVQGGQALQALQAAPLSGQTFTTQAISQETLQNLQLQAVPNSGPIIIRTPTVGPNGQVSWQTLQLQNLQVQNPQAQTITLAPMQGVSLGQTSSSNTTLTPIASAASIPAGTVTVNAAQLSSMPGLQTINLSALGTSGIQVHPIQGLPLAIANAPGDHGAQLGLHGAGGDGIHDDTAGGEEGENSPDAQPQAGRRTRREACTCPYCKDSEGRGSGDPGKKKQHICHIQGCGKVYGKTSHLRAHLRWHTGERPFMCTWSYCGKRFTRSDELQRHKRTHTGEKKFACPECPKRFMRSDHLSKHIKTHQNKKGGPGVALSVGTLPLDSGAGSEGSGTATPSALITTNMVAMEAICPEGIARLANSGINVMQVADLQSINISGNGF

B1: DUT Sp1 (-64 to -91) (dsDNA)
DNA 1: GGGCGGTGGGTGGGGCGGGGCTGGCGGG
DNA 2: CCCGCCAGCCCCGCCCCACCCACCGCCC
On to B1, for which the binding result in data set [1] is “binds”.

B2: DUT Sp1Δ (dsDNA)
DNA 1: GTTCGGTGGGTGGTTCGGGGCTGGCTTG
DNA 2: CAAGCCAGCCCCGAACCACCCACCGAAC
On to B2, for which the binding result in data set [2] was “no binding”.
